The Km is the substrate concentration at which the rate is half of its maximum. A word on the kcat: it is the number of substrate molecules converted per active site and unit of time at saturation. The term kcat/Km denotes the turnover number divided by the Michaelis constant.

The values below come from publication PMC6384963, “The β-N-Acetylhexosaminidase in the Synthesis of Bioactive Glycans: Protein and Reaction Engineering” (Molecules, 2019).

Substrate in data set [1]: CC(=O)N[C@H]1[C@H](Oc2ccc([N+](=O)[O-])cc2)O[C@H](CO)[C@H](O)[C@@H]1O
The data set can be described thus: purified protein. The data set is classed as biochemical, Talaromyces flavus. The note with it: McIlvaine buffer pH 5.0, 25 °C, hydrolysis.

Substrate in data set [2]: CC(=O)N[C@H]1[C@H](Oc2ccc([N+](=O)[O-])cc2)O[C@H](CO)[C@@H](O)[C@@H]1O
The data set can be described thus: purified protein. The note with it: McIlvaine buffer pH 5.0, 25 °C, hydrolysis. Type of data set: biochemical, Talaromyces flavus.

Substitutions are numbered along the chain they refer to. Names and notes keep the numbering of the source.

B1: TfHex (β-N-acetylhexosaminidase from Talaromyces flavus) (Talaromyces flavus; Y470N) (protein)
chain: VAVNPLPAPRSITWGTSGPISVPHNVDVKLPKNAIINDAWERAWTSIKQLRWVPQATEAPISSYEPFPTVAPTSASTASSTPLPSSSAAAVAARSQKRGHQKGSHEKRGHSQSTLRTVTVTVSDLNADLQAEVDESYTLVLDSGSSTLAITANTTWGALHAFTTLQQLVIYQDNSLIIEQPVHIEDSPLYPWRGVMIDTGRNFITVPKIKEQIDGMALSKLNILHWHLDDSQSWPVHMDTYPQMTNDAYSPWQTYSHEDIKDIIEYARARAVRVVPEVDMPGHSAAGWQQVDPSIVACAHSWWSNDNWPYHTAVEPTPGQLDPLNNKTYGVVEKVYNELSGIFTDDFFHVGGDELQTGCYNFSTYVSDYLAADPSRTYNDVTQYWVDHAFPIFKKIQNRKLVIWEDLIINNPHAPNVSTENLLVQSWNNGLTNINNLTNLGYDVLVSSSDFMNLDCGYGGFVTNDPRYDVMVNPDAVDGLANFNWGGNGGSWCAPYKTWQRIYDYDFTTNLTDAQAAHVKGAVAPLWSEQVDDTVISGKMWPRAAALAELVWSGNKDPKTGDKRTTYMTQRILNFREYLVANGVQAAPLVPKYCLQHPHSCDLYYDQTAVV
notes: secreted from Pichia pastoris KM71H, pPICZαA vector; purified by cation-exchange chromatography
Take B1: in data set [1], the Km was found to be 890 ± 90 µM, the kcat is 0.35 ± 0.01 s⁻¹ and the specificity constant (kcat/Km) was determined as 400 M⁻¹ s⁻¹. Further, in data set [2], the Km came out at 890 ± 130 µM, the kcat stood at 11.6 ± 0.6 s⁻¹ and the specificity constant (kcat/Km) was determined as 13000 M⁻¹ s⁻¹.

B2: TfHex (β-N-acetylhexosaminidase from Talaromyces flavus) (Talaromyces flavus; Y470H) (protein)
chain: B1 chain with N453H
notes: as for B1
B2: in data set [1], the Km was 350 ± 30 µM, the kcat was determined as 0.188 ± 0.004 s⁻¹ and the kcat/Km worked out at 530 M⁻¹ s⁻¹. Besides, in data set [2], the Km amounted to 53 ± 8 µM, the turnover number (kcat) came to 0.67 ± 0.02 s⁻¹ and the kcat/Km turned out to be 13000 M⁻¹ s⁻¹.

B3: TfHex (β-N-acetylhexosaminidase from Talaromyces flavus) (Talaromyces flavus) (protein)
chain: B1 chain with N453Y
notes: as for B1
Consider B3, for which, in data set [1], the Km was determined as 690 ± 90 µM, the catalytic constant (kcat) turned out to be 104 ± 5 s⁻¹ and the kcat/Km stood at 150000 M⁻¹ s⁻¹. In addition, in data set [2], the Michaelis constant (Km) came out at 110 ± 20 µM, the catalytic constant (kcat) is 47 ± 1 s⁻¹ and the kcat/Km amounted to 434000 M⁻¹ s⁻¹.

B4: TfHex (β-N-acetylhexosaminidase from Talaromyces flavus) (Talaromyces flavus; Y470F) (protein)
chain: B1 chain with N453F
notes: as for B1
As for B4, in data set [1], the Michaelis-Menten constant (Km) is 50 ± 5 µM, the kcat amounted to 0.166 ± 0.003 s⁻¹ and the kcat/Km was 3300 M⁻¹ s⁻¹. In addition, in data set [2], the Km was found to be 23 ± 8 µM, the kcat was determined as 0.27 ± 0.01 s⁻¹ and the kcat/Km was determined as 12000 M⁻¹ s⁻¹.
